From article doi:10.1101/2023.07.03.547593 (bioRxiv, 2023)
Where a chain is given by its changes, count along the chain named. In names and notes the source's numbering stands.

B1: nuclease-deactivated AsCas12f1 variant (D225A) (enzyme)
chain: MIKVYRYEIVKPLDLDWKEFGTILRQLQQETRFALNKATQLAWEWMGFSSDYKDNHGEYPKSKDILGYTNVHGYAYHTIKTKAYRLNSGNLSQTIKRATDRFKAYQKEILRGDMSIPSYKRDIPLDLIKENISVNRMNHGDYIASLSLLSNPAKQEMNVKRKISVIIIVRGAGKTIMDRILSGEYQVSASQIIHDDRKNKWYLNISYDFEPQTRVLDLNKIMGIALGVAVAVYMAFQHTPARYKLEGGEIENFRRQVESRRISMLRQGKYAGGARGGHGRDKRIKPIEQLRDKIANFRDTTNHRYSRYIVDMAIKEGCGTIQMEDLTNIRDIGSRFLQNWTYYDLQQKIIYKAEEAGIKVIKIDPQYTSQRCSECGNIDSGNRIGQAIFKCRACGYEANADYNAARNIAIPNIDKIIAESIK
B2: Acidibacillus sulfuroxidans Cas12f1, wild type (enzyme)
chain: B1 chain with A225D

How the values were obtained:
[1] = biological target: the molecule itself; assay: cryo-EM structure
[2] = biological target: the molecule itself; assay: SEC

Protein | binding result [1] | stoichiometry N [2]
B1 | binds | –
B2 | – | 2
